The values below come from patent US20040248785A1 (UNIVERSITY OF MARYLAND BALTIMORE, published 2004).

The target in assay [1] is T1, low density lipoprotein receptor-related protein / alpha2-macroglobulin receptor (LRP), isolated from human … (human, UniProt Q07954 20-4544).
T1 construct: mature; Native receptor coated on microtiter wells; also called purified LRP; immobilized LRP
The assay can be described thus: heterologous displacement of 125I-fVIII (1 nM) from LRP-coated wells; HCh as competitor. On the procedure: (§1) Homologous and heterologous ligand displacement assays were performed as previously described (Williams, S. E., et al., J. Biol. Chem. 267:9035-9040 (1992)). Microtiter wells were coated with purified LRP or BSA (3 μg/ml) in 50 mM Tris, 0.15 M NaCl, pH 8.0, for 16 h and then blocked with 3% BSA in TBS. Coated wells were incubated with ¹²⁵I-A2 or ¹²⁵I-fVIII in 20 mM Tris-buffered saline pH 7.4, containing 5 mM CaCl₂, 0.05% Tween-20 in the presence or absence of unlabeled competitors for 1 h at 37° C. The radioactivity bound to the wells was counted using a γ-counter (Pharmacia). Affinity constants were derived from homologous and heterologous displacement data using the computer program LIGAND (Munson, P T and Rodbard, D. Anal. Biochem. 107:220-239 (1980)).
(§2) In order to localize fVIII region(s) involved in interaction with LRP, binding between ¹²⁵I-fVIII and immobilized LRP was competed by unlabeled fVIII fragments.
For orientation: In a radioligand displacement assay an active substance lowers the binding of a labelled ligand.

Assay [2] has as its target T1, low density lipoprotein …. As to the kind of experiment: competition assay: peptide 484-509 added with 125I-fVIII (1 nM) to LRP-coated wells; competitor of fVIII for LRP. On the procedure: FIGS. 17A-17B. Effect of monoclonal antibodies and synthetic peptides on ¹²⁵fVIII binding to purified LRP. […] Binding of ¹²⁵I-fVIII in the presence antibodies or peptides is expressed as the percentage of its binding, when no competitor was added. The mean and standard deviation of the triplicate measurements are presented.
as §1

The target in assay [3] is T1, low density lipoprotein …. The assay can be described thus: RAP as competitor of 125I-fVIII (1 nM) binding to LRP-coated wells, LIGAND fit.
For assay [4], the target named is T1, low density lipoprotein …. As to the kind of experiment: solid-phase heterologous ligand displacement: RAP competes with 125I-fVIII (1 nM) for LRP-coated wells, 1 h at 37 C. The procedure: FIGS. 15A-15B. Binding of ¹²⁵I-fVIII to purified LRP by ligand competition assay. ¹²⁵I-fVIII (1 nM) was incubated for 1 h at 37° C. in wells coated with LRP (•) or BSA (∘) in the presence of increasing concentrations of unlabeled competitors, fVIII (•, ∘) or vWf (Δ) (FIG. 15A) and RAP (•, ∘) (FIG. 15B). In the experiment (Δ), ¹²⁵I-fVIII was preincubated with vWf for 30 min at 37° C., prior to its addition to the wells. Following incubation, the wells were washed and ¹²⁵I-fVIII binding was determined. Binding of ¹²⁵I-fVIII in the presence of unlabeled fVIII, vWf, or RAP is expressed as the percentage of ¹²⁵fVIII binding, when no competitor was added. Each point represents the mean value of triplicates and the error bars display the standard deviation. The curves show a best fit of the data to a model describing heterologous ligand displacement from a single class of binding sites using the program LIGAND.
Homologous and heterologous ligand displacement assays were performed as previously described (Williams, S. E., et al., J. Biol. Chem. 267:9035-9040 (1992)). Microtiter wells were coated with purified LRP or BSA (3 μg/ml) in 50 mM Tris, 0.15 M NaCl, pH 8.0, for 16 h and then blocked with 3% BSA in TBS. […] The radioactivity bound to the wells was counted using a γ-counter (Pharmacia). […]

Assay [5] has as its target T1, low density lipoprotein …. As to the kind of experiment: heterologous displacement of 125I-fVIII (1 nM) from LRP-coated wells; isolated A2 domain as competitor. On the procedure: as §1, §2
In assay [6] the target is T1, low density lipoprotein …. The assay can be described thus: homologous displacement of 125I-A2 (5 nM) by unlabeled A2 (0-1750 nM) on immobilized LRP, program Ligand.
For assay [7], the target named is LRP on mouse embryonic fibroblast (MEF) cells (mouse, UniProt Q91ZX7 20-4545). The assay can be described thus: cell-based or functional assay.

The term Ki denotes a dissociation constant, usually derived from enzyme kinetics or from competition with a known ligand. One may read the Kd as the free concentration of one partner at which half of the binding sites on the other are occupied at equilibrium, for simple one-to-one binding. A higher Kd goes with weaker binding.

T1 sequence (Q07954 20-4544, form in doubt): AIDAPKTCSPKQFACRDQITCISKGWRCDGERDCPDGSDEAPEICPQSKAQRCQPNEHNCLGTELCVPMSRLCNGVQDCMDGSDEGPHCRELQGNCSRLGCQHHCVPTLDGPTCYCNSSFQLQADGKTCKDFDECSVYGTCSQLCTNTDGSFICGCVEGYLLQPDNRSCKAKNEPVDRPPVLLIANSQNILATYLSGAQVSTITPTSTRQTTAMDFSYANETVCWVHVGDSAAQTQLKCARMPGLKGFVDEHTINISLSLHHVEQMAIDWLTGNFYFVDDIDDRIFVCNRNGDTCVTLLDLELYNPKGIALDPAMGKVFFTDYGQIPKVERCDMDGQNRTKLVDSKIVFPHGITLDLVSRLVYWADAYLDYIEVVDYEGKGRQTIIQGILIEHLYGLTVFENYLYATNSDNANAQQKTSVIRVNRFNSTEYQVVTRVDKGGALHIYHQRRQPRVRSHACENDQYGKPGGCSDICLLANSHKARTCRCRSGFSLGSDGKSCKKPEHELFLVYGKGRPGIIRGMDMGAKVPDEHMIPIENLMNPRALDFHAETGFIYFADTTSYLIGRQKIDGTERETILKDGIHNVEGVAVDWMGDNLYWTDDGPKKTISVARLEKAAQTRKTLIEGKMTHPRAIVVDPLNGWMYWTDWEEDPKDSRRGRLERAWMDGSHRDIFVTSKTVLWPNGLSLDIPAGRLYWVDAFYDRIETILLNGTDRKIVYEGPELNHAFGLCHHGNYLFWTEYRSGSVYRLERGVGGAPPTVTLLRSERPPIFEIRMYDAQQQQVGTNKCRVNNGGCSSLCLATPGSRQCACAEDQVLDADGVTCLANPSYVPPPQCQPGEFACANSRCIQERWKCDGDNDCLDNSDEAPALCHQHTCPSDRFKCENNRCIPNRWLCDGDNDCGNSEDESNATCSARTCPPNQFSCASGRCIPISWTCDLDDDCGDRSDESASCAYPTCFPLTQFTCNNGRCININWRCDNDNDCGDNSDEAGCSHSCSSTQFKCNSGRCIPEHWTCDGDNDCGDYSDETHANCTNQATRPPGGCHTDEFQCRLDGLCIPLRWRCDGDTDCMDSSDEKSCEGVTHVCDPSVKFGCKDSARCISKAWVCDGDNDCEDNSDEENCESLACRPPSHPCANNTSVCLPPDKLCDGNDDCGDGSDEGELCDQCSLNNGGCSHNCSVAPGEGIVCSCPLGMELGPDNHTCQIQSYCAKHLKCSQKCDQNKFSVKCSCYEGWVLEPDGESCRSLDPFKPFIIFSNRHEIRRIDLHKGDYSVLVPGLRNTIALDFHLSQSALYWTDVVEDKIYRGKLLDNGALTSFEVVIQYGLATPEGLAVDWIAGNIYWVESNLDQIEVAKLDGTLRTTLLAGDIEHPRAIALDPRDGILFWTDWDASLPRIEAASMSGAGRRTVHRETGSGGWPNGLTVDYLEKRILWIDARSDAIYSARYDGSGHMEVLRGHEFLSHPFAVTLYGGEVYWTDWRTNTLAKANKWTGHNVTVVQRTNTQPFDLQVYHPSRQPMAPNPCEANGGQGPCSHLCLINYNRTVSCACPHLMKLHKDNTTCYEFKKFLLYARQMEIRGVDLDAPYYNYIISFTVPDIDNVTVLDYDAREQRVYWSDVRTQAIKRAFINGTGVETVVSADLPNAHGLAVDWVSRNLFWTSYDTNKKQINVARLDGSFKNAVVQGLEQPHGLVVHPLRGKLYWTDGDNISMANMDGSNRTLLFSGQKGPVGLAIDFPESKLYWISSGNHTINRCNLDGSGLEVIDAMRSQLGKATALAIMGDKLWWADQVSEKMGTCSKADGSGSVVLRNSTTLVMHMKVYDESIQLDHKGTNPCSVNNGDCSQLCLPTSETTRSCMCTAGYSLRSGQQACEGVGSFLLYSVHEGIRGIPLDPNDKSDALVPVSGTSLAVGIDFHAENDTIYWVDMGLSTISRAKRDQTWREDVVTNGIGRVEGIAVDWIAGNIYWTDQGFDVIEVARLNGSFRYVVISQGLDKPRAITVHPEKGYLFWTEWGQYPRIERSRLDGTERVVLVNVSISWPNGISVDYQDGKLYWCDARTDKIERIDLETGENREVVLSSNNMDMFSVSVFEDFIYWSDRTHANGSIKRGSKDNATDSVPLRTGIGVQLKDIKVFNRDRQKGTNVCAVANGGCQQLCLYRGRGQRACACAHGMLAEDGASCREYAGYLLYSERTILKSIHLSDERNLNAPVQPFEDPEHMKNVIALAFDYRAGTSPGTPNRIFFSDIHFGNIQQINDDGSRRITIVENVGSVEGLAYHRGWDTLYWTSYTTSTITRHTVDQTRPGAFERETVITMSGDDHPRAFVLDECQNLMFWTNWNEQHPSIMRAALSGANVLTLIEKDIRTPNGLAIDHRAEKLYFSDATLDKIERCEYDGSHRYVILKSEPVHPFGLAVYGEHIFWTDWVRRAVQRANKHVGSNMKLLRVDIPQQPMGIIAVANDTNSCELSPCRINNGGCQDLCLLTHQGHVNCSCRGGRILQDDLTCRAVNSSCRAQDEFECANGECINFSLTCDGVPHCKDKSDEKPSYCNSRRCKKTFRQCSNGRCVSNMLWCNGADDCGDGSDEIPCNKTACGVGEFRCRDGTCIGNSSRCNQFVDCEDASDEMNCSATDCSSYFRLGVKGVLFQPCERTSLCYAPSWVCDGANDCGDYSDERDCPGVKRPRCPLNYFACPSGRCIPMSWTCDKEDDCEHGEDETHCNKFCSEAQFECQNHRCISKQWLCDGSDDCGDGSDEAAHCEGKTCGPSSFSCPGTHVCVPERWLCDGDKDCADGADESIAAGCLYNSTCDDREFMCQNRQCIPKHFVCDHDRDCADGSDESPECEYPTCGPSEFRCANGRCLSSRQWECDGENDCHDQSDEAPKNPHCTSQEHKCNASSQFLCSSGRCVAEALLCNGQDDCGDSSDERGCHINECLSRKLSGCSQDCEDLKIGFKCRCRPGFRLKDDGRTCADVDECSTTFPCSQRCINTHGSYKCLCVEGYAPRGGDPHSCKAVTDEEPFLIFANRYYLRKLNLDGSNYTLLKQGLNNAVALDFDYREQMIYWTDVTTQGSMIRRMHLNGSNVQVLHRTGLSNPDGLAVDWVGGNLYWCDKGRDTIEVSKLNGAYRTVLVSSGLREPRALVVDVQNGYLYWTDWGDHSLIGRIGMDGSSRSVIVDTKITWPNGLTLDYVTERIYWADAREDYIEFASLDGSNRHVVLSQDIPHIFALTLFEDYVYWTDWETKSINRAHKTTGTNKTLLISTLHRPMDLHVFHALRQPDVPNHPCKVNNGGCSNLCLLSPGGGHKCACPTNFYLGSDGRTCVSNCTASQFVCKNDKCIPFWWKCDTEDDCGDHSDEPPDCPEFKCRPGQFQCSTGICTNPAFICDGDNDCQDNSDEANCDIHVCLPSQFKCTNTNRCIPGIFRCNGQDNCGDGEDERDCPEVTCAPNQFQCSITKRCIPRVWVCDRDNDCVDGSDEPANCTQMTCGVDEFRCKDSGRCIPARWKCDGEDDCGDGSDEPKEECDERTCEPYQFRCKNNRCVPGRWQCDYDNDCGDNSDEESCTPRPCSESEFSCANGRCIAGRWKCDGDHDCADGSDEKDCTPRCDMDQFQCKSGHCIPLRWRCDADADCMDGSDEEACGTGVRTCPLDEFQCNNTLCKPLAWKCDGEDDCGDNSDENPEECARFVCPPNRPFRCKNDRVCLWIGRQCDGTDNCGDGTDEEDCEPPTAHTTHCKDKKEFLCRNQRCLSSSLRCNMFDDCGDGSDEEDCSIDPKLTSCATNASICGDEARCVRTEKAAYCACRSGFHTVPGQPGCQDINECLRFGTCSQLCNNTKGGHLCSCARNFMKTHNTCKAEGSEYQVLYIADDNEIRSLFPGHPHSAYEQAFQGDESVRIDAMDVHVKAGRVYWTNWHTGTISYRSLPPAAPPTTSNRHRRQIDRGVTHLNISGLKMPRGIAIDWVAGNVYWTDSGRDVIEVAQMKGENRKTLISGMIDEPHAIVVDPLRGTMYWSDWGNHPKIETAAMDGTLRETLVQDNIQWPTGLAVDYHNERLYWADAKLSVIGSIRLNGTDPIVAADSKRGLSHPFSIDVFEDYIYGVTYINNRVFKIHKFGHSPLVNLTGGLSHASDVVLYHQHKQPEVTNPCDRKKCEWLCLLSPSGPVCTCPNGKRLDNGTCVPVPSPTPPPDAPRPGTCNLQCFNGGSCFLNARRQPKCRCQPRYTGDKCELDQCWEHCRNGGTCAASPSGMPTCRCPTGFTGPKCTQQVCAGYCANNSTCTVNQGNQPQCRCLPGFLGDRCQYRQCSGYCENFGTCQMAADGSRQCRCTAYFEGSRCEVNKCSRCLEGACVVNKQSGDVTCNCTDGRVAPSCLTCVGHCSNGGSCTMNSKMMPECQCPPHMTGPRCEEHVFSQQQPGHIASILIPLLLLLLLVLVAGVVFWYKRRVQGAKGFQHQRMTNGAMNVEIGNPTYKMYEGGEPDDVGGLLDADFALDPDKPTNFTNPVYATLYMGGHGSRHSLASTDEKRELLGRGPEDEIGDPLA

B1: heavy chain (HCh) of factor VIII (other)
chain: ATRRYYLGAVELSWDYMQSDLGELPVDARFPPRVPKSFPFNTSVVYKKTLFVEFTDHLFNIAKPRPPWMGLLGPTIQAEVYDTVVITLKNMASHPVSLHAVGVSYWKASEGAEYDDQTSQREKEDDKVFPGGSHTYVWQVLKENGPMASDPLCLTYSYLSHVDLVKDLNSGLIGALLVCREGSLAKEKTQTLHKFILLFAVFDEGKSWHSETKNSLMQDRDAASARAWPKMHTVNGYVNRSLPGLIGCHRKSVYWHVIGMGTTPEVHSIFLEGHTFLVRNHRQASLEISPITFLTAQTLLMDLGQFLLFCHISSHQHDGMEAYVKVDSCPEEPQLRMKNNEEAEDYDDDLTDSEMDVVRFDDDNSPSFIQIRSVAKKHPKTWVHYIAAEEEDWDYAPLVLAPDDRSYKSQYLNNGPQRIGRKYKKVRFMAYTDETFKTREAIQHESGILGPLLYGEVGDTLLIIFKNQASRPYNIYPHGITDVRPLYSRRLPKGVKHLKDFPILPGEIFKYKWTVTVEDGPTKSDPRCLTRYYSSFVNMERDLASGLIGPLLICYKESVDQRGNQIMSDKRNVILFSVFDENRSWYLTENIQRFLPNPAGVQLEDPEFQASNIMHSINGYVFDSLQLSVCLHEVAYWYILSIGAQTDFLSVFFSGYTFKHKMVYEDTLTLFPFSGETVFMSMENPGLWILGCHNSDFRNRGMTALLKVSSCDKNTGDYYEDSYEDISAYLLSKNNAIEPRSFSQNSRHRSTRQKQFNATTIPENDIEKTDPWFAHRTPMPKIQNVSSSDLLMLLRQSPTPHGLSLSDLQEAKYETFSDDPSPGAIDSNNSLSEMTHFRPQLHHSGDMVFTPESGLQLRLNEKLGTTAATELKKLDFKVSSTSNNLISTIPSDNLAAGTDNTSSLGPPSMPVHYDSQLDTTLFGKKSSPLTESGGPLSLSEENNDSKLLESGLMNSQESSWGKNVSSTESGRLFKGKRAHGPALLTKDNALFKVSISLLKTNKTSNNSATNRKTHIDGPSLLIENSPSVWQNILESDTEFKKVTPLIHDRMLMDKNATALRLNHMSNKTTSSKNMEMVQQKKEGPIPPDAQNPDMSFFKMLFLPESARWIQRTHGKNSLNSGQGPSPKQLVSLGPEKSVEGQNFLSEKNKVVVGKGEFTKDVGLKEMVFPSSRNLFLTNLDNLHENNTHNQEKKIQEEIEKKETLIQENVVLPQIHTVTGTKNFMKNLFLLSTRQNVEGSYDGAYAPVLQDFRSLNDSTNRTKKHTAHFSKKGEEENLEGLGNQTKQIVEKYACTTRISPNTSQQNFVTQRSKRALKQFRLPLEETELEKRIIVDDTSTQWSKNMKHLTPSTLTQIDYNEKEKGAITQSPLSDCLTRSHSIPQANRSPLPIAKVSSFPSIRPIYLTRVLFQDNSSHLPAASYRKKDSGVQESSHFLQGAKKNNLSLAILTLEMTGDQREVGSLGTSATNSVTYKKVENTVLPKPDLPKTSGKVELLPKVHIYQKDLFPTETSNGSPGHLDLVEGSLLQGTEGAIKWNEANRPGKVPFLRVATESSAKTPSKLLDPLAWDNHYGTQIPKEEWKSQEKSPEKTAFKKKDTILSLNACESNHAIAAINEGQNKPEIEVTWAKQGRTERLCSQNPPVLKRHQR
notes: Prepared from plasma-derived fVIII
Turning to B1, the Ki in assay [1] worked out at 120 nM.

B2: synthetic peptide of fVIII A2 domain residues 484-509 (peptide)
peptide: RPLYSRRLPKGVKHLKDFPILPGEIF
Regarding B2, the “IC50 (read off the curve)” value in assay [2] is around 1000 nM.

B3: 39 kDa receptor-associated protein (RAP), human, expressed in bacteria (ligand)
chain: YSREKNQPKPSPKRESGEEFRMEKLNQLWEKAQRLHLPPVRLAELHADLKIQERDELAWKKLKLDGLDEDGEKEARLIRNLNVILAKYGLDGKKDARQVTSNSLSGTQEDGLDDPRLEKLWHKAKTSGKFSGEELDKLWREFLHHKEKVHEYNVLLETLSRTEEIHENVISPSDLSDIKGSVLHSRHTELKEKLRSINQGLDRLRRVSHQGYSTEAEFEEPRVIDLWDLAQSANLTDKELEAFREELKHFEAKIEKHNHYQKQLEIAHEKLRHAESVGDGERVSRSREKHALLEGRTKELGYTVKKHLQDLSGRISRARHNEL
notes: also called alpha2 macroglobulin receptor-associated protein
In the case of B3, the Ki in assay [3] came to 2.5 nM. Also, in assay [4], the “IC50 (read off the curve)” value was around 2 nM.

B4: A2 subunit (A2 domain) of factor VIII, isolated from thrombin-activated fVIII (other)
chain: SVAKKHPKTWVHYIAAEEEDWDYAPLVLAPDDRSYKSQYLNNGPQRIGRKYKKVRFMAYTDETFKTREAIQHESGILGPLLYGEVGDTLLIIFKNQASRPYNIYPHGITDVRPLYSRRLPKGVKHLKDFPILPGEIFKYKWTVTVEDGPTKSDPRCLTRYYSSFVNMERDLASGLIGPLLICYKESVDQRGNQIMSDKRNVILFSVFDENRSWYLTENIQRFLPNPAGVQLEDPEFQASNIMHSINGYVFDSLQLSVCLHEVAYWYILSIGAQTDFLSVFFSGYTFKHKMVYEDTLTLFPFSGETVFMSMENPGLWILGCHNSDFRNRGMTALLKVSSCDKNTGDYYEDSYEDISAYLLSKNNAIEPR
modifications: 125I-labelled where used as tracer
notes: Protein was made from plasma-derived fVIII
Molecule B4 had a Ki in assay [5] of 132 nM. The molecule further showed a Kd in assay [6] of 130 nM. Also, in assay [7], the “inhibition of degradation of 125I-fVIII/vWf complex by MEF cells by a 1000-fold excess of A2, after 4 hours” value was above 60% and the “inhibition of internalization of 125I-fVIII/vWf complex by MEF cells by a 1000-fold excess of A2, after 4 hours” value is above 70%.
